{
  "source": "patent US20190135915A1",
  "about": "(SYNTIMMUNE, published 2019)",
  "key": {"[1]": {"molecular_target": "T1, monomeric His-tagged hFcRn (human, UniProt P55899 24-297; P61769 21-119, limits assumed)", "T1 construct": "also called human FcRn; not shown: His tag", "T1 sequence (P55899 24-297 limits assumed, chain 1 of 2)": "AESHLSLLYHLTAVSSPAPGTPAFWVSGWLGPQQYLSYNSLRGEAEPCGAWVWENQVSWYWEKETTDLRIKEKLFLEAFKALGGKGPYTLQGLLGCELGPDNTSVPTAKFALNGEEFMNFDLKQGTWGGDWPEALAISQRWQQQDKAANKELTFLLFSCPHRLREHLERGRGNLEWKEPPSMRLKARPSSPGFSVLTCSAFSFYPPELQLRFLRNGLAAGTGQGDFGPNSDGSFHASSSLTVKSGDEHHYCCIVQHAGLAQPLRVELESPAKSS", "T1 sequence (P61769 21-119 limits assumed, chain 2 of 2)": "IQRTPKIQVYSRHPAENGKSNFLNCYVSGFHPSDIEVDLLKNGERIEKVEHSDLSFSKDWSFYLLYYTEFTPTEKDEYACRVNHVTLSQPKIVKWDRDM", "test": "SPR Biacore 3000, antibody amine-coupled to CM5, His-tagged hFcRn analyte, pH 6.0, 25 C, 1:1 Langmuir; pH 6.0", "protocol": "(§1) The coupling was performed by injecting 2 μg/ml of each protein into 10 mM sodium acetate, pH 4.5 (GE Healthcare), using the amine coupling kit (GE Healthcare). HBS-P buffer pH 7.4 (0.01 M HEPES, 0.15 M NaCl, 0.005% surfactant P20) or phosphate buffer pH 6.0 (67 mM phosphate buffer, 0.15 M NaCl, 0.005% Tween 20) were used as running buffer and dilution buffer. […] All SPR experiments were conducted at 25° C. with a flow rate of 40 μl/min Binding data were zero-adjusted, and the reference cell value subtracted. The Langmuir 1:1 ligand binding model provided by the BIAevaluation software (version 4.1) was used to determine the binding kinetics. The closeness of the fit is described by the statistical value χ².\n(§2) The kinetic rate constants were obtained using a simple first-order (1:1) Langmuir bimolecular interaction model. The kinetic values represent the average of duplicates. The χ² (chi-square) values represent the fit to the binding model used."}, "[2]": {"molecular_target": "T2, recombinant human FcRn (Sino Biological Inc. Cat. No. CT009-H08H) (human, UniProt P55899 24-297; P61769 21-119)", "T2 construct": "also called immobilized FcRn", "T2 sequence (P55899 24-297 limits assumed, chain 1 of 2)": "as the sequence (P55899 24-297 limits assumed, chain 1 of 2) above", "T2 sequence (P61769 21-119 limits assumed, chain 2 of 2)": "as the sequence (P61769 21-119 limits assumed, chain 2 of 2) above", "test": "competition ELISA, pH 6.0; competitor biotinylated parent murine antibody; captured recombinant human FcRn; HEK-expressed IgG4", "protocol": "(§3) The IgG4 antibodies were tested for antigen binding in a competition ELISA at pH 6.0 and pH 7.4. A Nunc Immuno MaxiSorp 96 well flat bottom microtitre plate (Fisher, cat. no. DIS-971-030J) was pre-coated with 1 μg/ml of an FcRn antibody specific for an IgG-binding epitope distinct from the albumin-binding region overnight at pH 7.4. The following day, 1 μg/ml recombinant human FcRn (Sino Biological Inc. cat. no. CT009-H08H) diluted in PBS pH 7.4 was added to the wells and incubated for 1 hour at 37° C. After washing the plates 3× with PBST pH 7.4, the plates were blocked with PBSM pH 7.4 for 1 hour at 37° C. From this point onwards, all wash and incubation steps were performed at the chosen assay pH (pH 6.0 or 7.4). […] The reaction was stopped with 3 M HCl, absorbance read at 450 nm on a Dynex Technologies MRX TC II plate reader and the binding curves plotted."}, "[3]": {"molecular_target": "T2, recombinant human FcRn (Sino Biological …)", "test": "competition ELISA, pH 6.0; competitor biotinylated parent murine antibody; captured recombinant human FcRn; HEK-expressed IgG4", "protocol": "as §3\n(§4) NS0 produced humanized affinity matured IgGs were used in all assays other than G50_C10/Vκ3), which was purified from transiently expressing HEK cells.", "remark": "listed apart in the source"}, "[4]": {"molecular_target": "T1, monomeric His-tagged hFcRn", "test": "SPR Biacore 3000, antibody amine-coupled to CM5, His-tagged hFcRn analyte, pH 7.4, 25 C, 1:1 Langmuir; pH 7.4", "protocol": "as §1, §2"}, "[5]": {"molecular_target": "T3, FcRn (analyte in the Biacore T200 study) (human, UniProt P55899 24-297; P61769 21-119, limits assumed)", "T3 construct": "also called human FcRn", "T3 sequence (P55899 24-297 limits assumed, chain 1 of 2)": "as the sequence (P55899 24-297 limits assumed, chain 1 of 2) above", "T3 sequence (P61769 21-119 limits assumed, chain 2 of 2)": "as the sequence (P61769 21-119 limits assumed, chain 2 of 2) above", "test": "SPR Biacore T200, antibody amine-coupled to CM5, FcRn analyte, 1:1 model; chip with the three best variants (repeat run, dissociation 4500 s per paragraph 156); pH not stated", "protocol": "(§5) Antibodies were immobilized onto a Series S CM5 sensor chip surface using standard amine coupling chemistry and analyte (FcRn) flowed over the surface. A 2-fold dilution range was selected from 50-0.01 nM FcRn. The association phase of FcRn analyte was monitored for 450 seconds, and dissociation was initially measured for either 250 or 2500 seconds, at 40 μl/min Fc1 was a reference channel and was subtracted from other flow cells to correct for non-specific binding. […] Kinetic values are based on a 1:1 binding model (Table 5)."}, "[6]": {"molecular_target": "T1, monomeric His-tagged hFcRn", "test": "SPR Biacore 3000, antibody amine-coupled to CM5, His-tagged hFcRn analyte, pH 7.4, 25 C, 1:1 Langmuir", "protocol": "as §1, §2"}, "[7]": {"molecular_target": "T2, recombinant human FcRn (Sino Biological …)", "test": "competition ELISA, pH 7.4: test IgG4 (from transient HEK per paragraph 152) titrated against fixed biotinylated murine parent antibody on recombinant human FcRn; streptavidin-HRP/TMB, OD450 [top panel]", "protocol": "as §3, §4"}, "[8]": {"molecular_target": "T2, recombinant human FcRn (Sino Biological …)", "test": "competition ELISA, pH 7.4; competitor biotinylated parent murine antibody; captured recombinant human FcRn; HEK-expressed IgG4", "protocol": "as §3, §4"}, "[9]": {"molecular_target": "T3, FcRn (analyte in the Biacore T200 study)", "test": "SPR Biacore T200, antibody amine-coupled to CM5, FcRn analyte, 1:1 model; pH not stated", "protocol": "as §5"}, "[10]": {"molecular_target": "T2, recombinant human FcRn (Sino Biological …)", "test": "competition ELISA, pH 6.0: test IgG4 (from transient HEK per paragraph 152) titrated against fixed biotinylated murine parent antibody on recombinant human FcRn; streptavidin-HRP/TMB, OD450 [top panel]", "protocol": "as §3, §4"}, "[11]": {"molecular_target": "T3, FcRn (analyte in the Biacore T200 study)", "test": "SPR Biacore T200, antibody immobilized, FcRn analyte", "protocol": "as §5"}, "[12]": {"molecular_target": "T2, recombinant human FcRn (Sino Biological …)", "test": "competition ELISA, pH 7.4; competitor biotinylated parent murine antibody; captured recombinant human FcRn; HEK-expressed IgG4", "protocol": "as §3", "remark": "listed apart in the source"}, "[13]": {"molecular_target": "T1, monomeric His-tagged hFcRn", "test": "SPR Biacore 3000, antibody amine-coupled to CM5, His-tagged hFcRn analyte, pH 6.0, 25 C, 1:1 Langmuir", "protocol": "as §1"}},
  "note": "“And” between values parts separate entries of the source, which are not always exact repeats. Equal values may be shown once.",
  "data": [
    {"binder": "G50_C10/Vκ3 (antibody, V domains shown, Bivalent IgG4 with S241P, human kappa; also called SYNT002-16; G50_C10/Vκ3 (HEK)) VH: EVQLVESGGGLVKPGGSLKLSCAASGFTFSDYGMHWVRQAPGKGLEWVAYISSGSSTIYYADTVKGRFTISRDNAKNTLYLQMNSLRAEDTAMYYCARLESTTAVGDYWGQGTSVTVSS VL: DIVMTQSPDSLSASVGDRVTITCKASQSVSNDVAWYQQKPGQPPKLLIYYASNRYTGVPDRFSGSGYGTDFTLTISSLQAEDVAVYFCQQDYSSLTFGQGTKLEIK", "values": [
      {"measurement": "kon", "setting": "[1]", "result": 110000, "unit": "M⁻¹ s⁻¹"},
      {"measurement": "Average relative IC50 (relative to humanized parent)", "setting": "[2]", "result": 0.9},
      {"measurement": "Average relative IC50 (relative to humanized parent)", "setting": "[3]", "result": 0.89},
      {"measurement": "koff", "setting": "[4]", "result": "8e-08", "unit": "s⁻¹"},
      {"measurement": "Kd", "setting": "[5]", "result": 0.054, "unit": "nM"},
      {"measurement": "koff", "setting": "[5]", "result": "1.54e-05", "unit": "s⁻¹"},
      {"measurement": "kon", "setting": "[5]", "result": 283000, "unit": "M⁻¹ s⁻¹"},
      {"measurement": "Kd", "setting": "[6]", "result": 0.00066, "unit": "nM"},
      {"measurement": "kon", "setting": "[6]", "result": 120000, "unit": "M⁻¹ s⁻¹"},
      {"measurement": "IC50 (read off the curve)", "setting": "[7]", "result": "~0.4", "unit": "µg/mL"},
      {"measurement": "Average relative IC50 (relative to humanized parent)", "setting": "[8]", "result": 0.54},
      {"measurement": "koff", "setting": "[9]", "result": "≤ 1e-05 s⁻¹ and 2.34e-05 s⁻¹"},
      {"measurement": "kon", "setting": "[9]", "result": "399000 M⁻¹ s⁻¹ and 298000 M⁻¹ s⁻¹"},
      {"measurement": "IC50 (read off the curve)", "setting": "[10]", "result": "~0.5", "unit": "µg/mL"},
      {"measurement": "fold improvement in affinity compared to the humanized parental, on average", "setting": "[11]", "result": 50, "unit": "fold"},
      {"measurement": "Average relative IC50 (relative to humanized parent)", "setting": "[12]", "result": 0.7},
      {"measurement": "Kd", "setting": "[13]", "result": 0.4, "unit": "nM"},
      {"measurement": "koff", "setting": "[13]", "result": "4.7e-05", "unit": "s⁻¹"}
    ]}
  ]
}
